Test results: the nanobody polyreactivity screen of Harvey et al. (2022)

Test: yeast display, Sf9 membrane polyspecificity reagent, FACS + sequencing; frameworks hold sequencing errors
Outline: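 Polyreactivity labels are assigned by the sorting gate from which each nanobody was recovered. The gates were low and high (top ~1%), set on anti-HA fluorescence for expression and streptavidin fluorescence for reagent binding. Before sorting, galactose-induced (36–48 hours) yeast display cells were stained for 1 hour at 4 °C with 10% biotinylated, detergent-solubilized Sf9 membrane reagent.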

Row | Sequence | polyreactivity (PSR sort gate)
1 | QVQLVESGGGLVQAGGSLRLSCAASGRTFSYNAMGWYRQAPGKEWELVAAISWGGGSTYYADSVKGRFTISRDNAKNTVYLQMNSLKPEDTAVYYCAAKRLTSRQHDYWGQGTQVTVSS | high polyreactivity
2 | QVQLVESGGGLVQAGGSLRLSCAASGRTFSYNVMGWYRQAPGKERELVASTYYADSVKGRFTISRDIAKNTVYLQMNSVKPEDTAVYYCNRDKPGLFFTSYNYSSSYDYWGQGTLVTVSS | low polyreactivity
3 | QVQLVESGGGLVQAGGSLRLSCAASGRTFSYYAMGWYRKAPGKERELVASISGGGRTNYADSVKGRFTISRDNAKNTVYLQMNSLKPEDTAVYYCAARYLITRQYKRGYWGQGTQVTVSS | high polyreactivity
4 | QVQLVESGGGLVQAGGSLRLSCAASGRTFSYYAMGWYRQAPGKERELVASIRKSGASTYYADSVKGRFTISRDNAKNTVYLQMNSLKPEDTAVYYCAARGSRKPDWGLGYWGQGTQVTVSS | high polyreactivity
5 | QVQLVESGGGLVQAGGSLRLSCAASGRTFSYYAMGWYRQAPGKERELVASISYSAGRTYYADSVKGRFTISRDNAKNTVYLQMNSLKPEDTAVYYCAVRGVRRFPVRTGSYTRYGDYYWGQGTQVTVSS | high polyreactivity
6 | QVQLVESGGGLVQAGGSLRLSCAASGRTFSYYAMGWYRQAPGKERELVASITSGGRTYYADSVKGRFTISRDNAKNTFYLQMNSLKPEDTAVYYCNVDNQYLDRYGRRYGYWGQGTQVTVSS | low polyreactivity
7 | QVQLVESGGGLVQAGGSLRLSCAASGRTFSYYAMGWYRQAPGKERELVATIRFSAGGTYYADSVKGRFTISRDNAKNTVYLQMNSLKPEDTAVYYCNADSIDPFLYDYWGQGTQVTVSS | low polyreactivity
8 | QVQLVESGGGLVQAGGSLRLSCAASGRTFSYYAMGWYRQATGKERELVAAINSSGGRTYYADSVKGRFTISRDNAKNTVYLQMNSLKPEDTAVYYCAARSYSTSSHHGYWGQGTQVTVSS | high polyreactivity
9 | QVQLVESGGGLVQAGGSLRLSCAASGRTFSYYGMGWYRKAPGKERELVAGISIRGSHTYYADSVKGRFTISRDNAKNTVFLQMNSLKPEDTGVYYCAARWIGLYSYEYWGQGSQVTVSS | high polyreactivity
10 | QVQLVESGGGLVQAGGSLRLSCAASGRTFTANAMGWYRQAPGKERELVAAIRWRGGSTSYADSVKGRFTISRDNAKNTVYLQMNSLKPEDTAVYYCAAESRWRSSAGGYYYWGQGTQVTVSS | low polyreactivity
11 | QVQLVESGGGLVQAGGSLRLSCAASGRTFTAYAMGWYRQAPGKERELVAAITSGGSTYYADSVKGRFTISRDNAKNTVYLQMNSLKPEDTAVYYCATDLYSFYWPEYEYWGQGTQVTVSS | low polyreactivity
12 | QVQLVESGGGLVQAGGSLRLSCAASGRTFTDNAMGWYRQAPGKERELVAAISRRGGSTYYADSVKGRFTISRDNAKNTVYLQMNSLKPEDTAVYYCARASRDIRPYDYWGQGTQVTVSS | high polyreactivity
13 | QVQLVESGGGLVQAGGSLRLSCAASGRTFTEYAMGWYRQAHGKERELVARISIGDSTYYADSVKGRFTISRDNAKNTVYLQMNSLKPEDTAVYYCNAEYSRSYRYDEGYWGQGTKVTVSS | low polyreactivity
14 | QVQLVESGGGLVQAGGSLRLSCAASGRTFTGNAMGWYRPAPGKERELVADNNLSGGDTYYADSVKGRFTISRDNAKNTVYLQMNSLKPEDTAVYYCNARVRDKRTGRYGYWGQGTQVTVSS | high polyreactivity
15 | QVQLVESGGGLVQAGGSLRLSCAASGRTFTGYNMGWYRQEPGKEREFVAAISSNGGRTYYADSVKGRFTISRDNAKNTVYLQMNSLKPEDTAVYYCAAPFTFWGQGTQVTVSS | high polyreactivity
16 | QVQLVESGGGLVQAGGSLRLSCAASGRTFTGYVMGWYRQAPGKERELVAVIRYRGGGSYYADSVKGRFTISRDNAKNTVYLQMNSLKPEDTAVYYCARKRVYFGLWMYYWGHGTQVTVSS | high polyreactivity
17 | QVQLVESGGGLVQAGGSLRLSCAASGRTFTIYARGWYRHAPGKERELVAAISSGSRTYYADSVKGRFTISRDNAKNTVYLQMNSLKPEDTAVYYCAASLTRHGYYRLFDYWGQGTQVTVSS | high polyreactivity
18 | QVQLVESGGGLVQAGGSLRLSCAASGRTFTPYAMGWYRQAPGKERELVATISGGGSTHYADSVKGRFTISRDNAKNTVYIQRNSLKPEDTAVYYCSPSRDTVGRGPIQRDYWGQGTQVTVSS | low polyreactivity
19 | QVQLVESGGGLVQAGGSLRLSCAASGRTFTPYAMGWYRQAPGKERELVATISSGTSTNYADSVKGRFTISRDNAKNTVYLQMNSLKPEDTAVYYCAADGYTYKFDYWGQGTQVTVSS | low polyreactivity
20 | QVQLVESGGGLVQAGGSLRLSCAASGRTFTQNAMGWYRQATGKERELVASISSSGSTYADSVKGRFTISRDNAKNTVYLQMISLKPEDTAVNYCNAVGFQANDYNYWGQGTQVTVSS | low polyreactivity
21 | QVQLVESGGGLVQAGGSLRLSCAASGRTFTRIAMGWYRPAPGKERELVAAIRWRGGGSTYYADSVKGRFTISRDNAKNTVYLQMNSLKPEDTAVYYCNARRYTGTGSAWYYYWGQGTQVTVSS | high polyreactivity
22 | QVQLVESGGGLVQAGGSLRLSCAASGRTFTRYAMGWYRQAPGKERELVAAISVRAGITYYADSVKGRFTISRDNAKNTVYLQMNSLKPEDTAVYYCAAKDGRSYYDRTPMVYFGQGTQVTVSS | low polyreactivity

Row | Sequence | polyreactivity (PSR sort gate)
23 | QVQLVESGGGLVQAGGSLRLSCAASGRTFTRYAMGWYRQAPGKERELVAAITIGDTTNYADSVKGRFTISRDNAKNTVYLQMNSLKPEDTAVYYCAAYVPRWSSYRRGGYWGQGTQVTVSS | high polyreactivity
24 | QVQLVESGGGLVQAGGSLRLSCAASGRTFTRYPMGWYRQAPGKERELVAAITRGGSTYADSVKGRFTISRDNAKNTVYLQMNSLKPEDTAVYYCAAYWGFYPWRAYPYDYWGQGTQVTVSS | high polyreactivity
25 | QVQLVESGGGLVQAGGSLRLSCAASGRTFTRYSMGWYRQAPGKERELVAAISRSGGSTYYADSVKGRFTISRDNAKNTVYLQMNSLKPEDTAVYYCAADVYRDLAYDYWGQGTQVTVSS | high polyreactivity
26 | QVQLVESGGGLVQAGGSLRLSCAASGRTFTRYTMGWYRQAAGKERELVAAISYSGGSTYYADSVKGRFTISRDNAKNTVYLQMNSLKPEDTAVYYCAAASVRWPGYDYWGQGTQVTVSS | high polyreactivity
27 | QVQLVESGGGLVQAGGSLRLSCAASGRTFTSYAMGWYRQAPGKERELVAAISQGGGRTYYADSVKGRFTISRDNAKNTVYLQMNSLKPEDTAVYYCNARSLYPWRWKKEYGHWGQGTQVTVSS | high polyreactivity
28 | QVQLVESGGGLVQAGGSLRLSCAASGRTFTSYAMGWYRQAPGKERELVATISWSGGSTYYADSVKGRFTISRDNAKNTVYLQMNSLKPEDTAVYYCAALKPWTTGYGDRFDYWGQGTQVTVSS | low polyreactivity
29 | QVQLVESGGGLVQAGGSLRLSCAASGRTFTTNAMGWYRQAPGKERELVAAITSTTRTYYADSVKGRFTISRDNAKNTVYLQMNSLKPEDTAVYFCAARYPTPWGYYYWGQGTQVTVSS | high polyreactivity
30 | QVQLVESGGGLVQAGGSLRLSCAASGRTFTTNTMGWYRQAPGKERELVAGIRWSGSRTYYADSVKGRFTISRDNAKITVFLQMNSLKPEDSAVYYCAVGRRSDAPLYVYRFDYWGQGTQVTVSS | low polyreactivity
31 | QVQLVESGGGLVQAGGSLRLSCAASGRTFTTYAMGWYRQAPGKARELVAAISDTGGITYYADSVKGRFTISRDNAKNTVYLQMISLKPEDTAVYYCNAESYGGDYDYWGQGTQVTVSS | low polyreactivity
32 | QVQLVESGGGLVQAGGSLRLSCAASGRTFTVNAIGWYRQAPGKERELVAAISGRSGRTSYADSVKGRFTISRDNAKNTVYLQMNSLKPEDTAVYYCNASGGYSTGSRYDYWGQGTQVTVSS | high polyreactivity
33 | QVQLVESGGGLVQAGGSLRLSCAASGRTFTVYAMGWYRQAPGKERELVAAINYSGGRTYYADSVKGRFTISRDNAKNTVYLQMNSLKPEDTAVYYCAAYVYQSSPRYSRYGGYDYWGQGTQVTVSS | low polyreactivity
34 | QVQLVESGGGLVQAGGSLRLSCAASGRTFTWNVMGWYRQAPGKERELVAAITTDDRTYADSVKGRFTISRDNAKNTVYLQMNSLKPEDTAVYYCATVVAWSSRPVGEDYWGQGTQVTVSS | low polyreactivity
35 | QVQLVESGGGLVQAGGSLRLSCAASGRTFTYNVMGWYRQAPGKERELVAAISSGGGTISADSVKGRFTISRDNAKHTVYLQMNSLKPEDTAVYYCAAKYAWRLLEMYYWGQGTQVTVSS | low polyreactivity
36 | QVQLVESGGGLVQAGGSLRLSCAASGRTFTYYAMGWYIQAPGKERELVAAITSGGRTYYADSVKGRFTISRDNAKNHVYLQMNSLKPEDTAVYYCAARRIRDYYRSYDYWGQGTQVTVSS | high polyreactivity
37 | QVQLVESGGGLVQAGGSLRLSCAASGRTFTYYAMGWYRQAPGKERELVAAIRWTGDSTYYADSVKGRFTISRDNAKNTVYLQMNSLKPEDTAVYYCAKQARWQYDGGIRWYYYWGQGTQVTVSS | high polyreactivity
38 | QVQLVESGGGLVQAGGSLRLSCAASGRTFTYYAMGWYRQAPGKVRELVAAITFRGGRTYYADSVKGRFTFSRDNPKNTVYLQMNSLKPEDTAVYYCAAVPLWSYGGNYWGQGTQVTVSS | high polyreactivity
39 | QVQLVESGGGLVQAGGSLRLSCAASGRTFVANRMGWYRQAPGKERELVAAINDGDDTYYADSVKGRFTISRDNAKNTVYLQMNSLKPEDTAVYYCAADIIYGYEVYTYTSDYWGQGTQVTVSS | low polyreactivity
40 | QVQLVESGGGLVQAGGSLRLSCAASGRTFVEYAMGWYRQAPGKERELVADITISGGRTYYADSVKGRFTISRDNAKNTVYLQMNSLKPEDTAVYYCNAQSYLGVTHRGYIKNGYDYWGQGTQVTVSS | low polyreactivity
41 | QVQLVESGGGLVQAGGSLRLSCAASGRTFVGNALGGYIQAPGKERELVAAISSGGSTYYADSVKGRFTISRDNAKITVYLQMNSLNPEDTAVYYCAGLYRRGAHGDYWGQGTQVTVSS | low polyreactivity
42 | QVQLVESGGGLVQAGGSLRLSCAASGRTFVGNSMGWYRQAPGKERELVADITWSGDITYYADSVKGRFTISRDNAKNTVYLQMNSLKPEDTAVYYCAADYHRRRTDYDYWGQGTQVTVSS | low polyreactivity
43 | QVQLVESGGGLVQAGGSLRLSCAASGRTFVGYAIGWSRPATGKERELVAAISRTGGSTYYADSVKGRFTISRDNAKNTVYLQMNSLKPEDTAVYYCNAVTLSSTYGGHDYWGQGTQVTVSS | high polyreactivity
